{"source": "paper PMC3093405", "about": "“A Motif Unique to the Human Dead-Box Protein DDX3 Is Important for Nucleic Acid Binding, ATP Hydrolysis, RNA/DNA Unwinding and HIV-1 Replication” (PLoS ONE, 2011)", "key": {"DDX3wt (Homo sapiens)": {"molecular_target": "DDX3wt (Homo sapiens) (UniProt O00571)", "sequence (O00571 whole entry)": "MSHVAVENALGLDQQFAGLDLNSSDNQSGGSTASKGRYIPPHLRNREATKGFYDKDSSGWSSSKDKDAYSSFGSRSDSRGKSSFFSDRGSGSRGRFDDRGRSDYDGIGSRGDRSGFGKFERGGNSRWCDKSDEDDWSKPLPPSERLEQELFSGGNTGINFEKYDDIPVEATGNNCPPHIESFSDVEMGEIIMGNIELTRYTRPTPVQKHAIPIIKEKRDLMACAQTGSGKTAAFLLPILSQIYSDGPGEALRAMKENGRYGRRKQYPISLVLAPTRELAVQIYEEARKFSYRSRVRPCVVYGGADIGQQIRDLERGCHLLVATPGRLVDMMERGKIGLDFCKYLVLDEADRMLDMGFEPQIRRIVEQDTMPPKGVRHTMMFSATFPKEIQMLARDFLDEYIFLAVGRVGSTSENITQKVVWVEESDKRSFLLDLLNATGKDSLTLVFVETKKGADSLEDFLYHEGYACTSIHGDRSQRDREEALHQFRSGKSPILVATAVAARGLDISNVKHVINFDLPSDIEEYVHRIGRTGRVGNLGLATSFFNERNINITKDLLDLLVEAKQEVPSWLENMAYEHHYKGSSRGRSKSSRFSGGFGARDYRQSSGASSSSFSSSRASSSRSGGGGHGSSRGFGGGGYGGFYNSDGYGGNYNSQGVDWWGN", "assay": "filter binding", "conditions": "no ATP hydrolysis; 3 mM Mg2+; 50 µg/ml salmon sperm DNA; EMSA: on ice, protein buffer 25 mM Tris-HCl pH 7.5, 0.5 mM DTT, 20% glycerol, 100 mM NaCl plus 5x binding buffer (10% glycerol, 5 mM MgCl2, 2.5 mM EDTA pH 8 …)"}, "[1]": {"molecular_target": "DDX3ΔINS del250-259 (Homo sapiens) (UniProt O00571)", "sequence (O00571 other isoform, or with tags, fused parts or gaps mutant)": "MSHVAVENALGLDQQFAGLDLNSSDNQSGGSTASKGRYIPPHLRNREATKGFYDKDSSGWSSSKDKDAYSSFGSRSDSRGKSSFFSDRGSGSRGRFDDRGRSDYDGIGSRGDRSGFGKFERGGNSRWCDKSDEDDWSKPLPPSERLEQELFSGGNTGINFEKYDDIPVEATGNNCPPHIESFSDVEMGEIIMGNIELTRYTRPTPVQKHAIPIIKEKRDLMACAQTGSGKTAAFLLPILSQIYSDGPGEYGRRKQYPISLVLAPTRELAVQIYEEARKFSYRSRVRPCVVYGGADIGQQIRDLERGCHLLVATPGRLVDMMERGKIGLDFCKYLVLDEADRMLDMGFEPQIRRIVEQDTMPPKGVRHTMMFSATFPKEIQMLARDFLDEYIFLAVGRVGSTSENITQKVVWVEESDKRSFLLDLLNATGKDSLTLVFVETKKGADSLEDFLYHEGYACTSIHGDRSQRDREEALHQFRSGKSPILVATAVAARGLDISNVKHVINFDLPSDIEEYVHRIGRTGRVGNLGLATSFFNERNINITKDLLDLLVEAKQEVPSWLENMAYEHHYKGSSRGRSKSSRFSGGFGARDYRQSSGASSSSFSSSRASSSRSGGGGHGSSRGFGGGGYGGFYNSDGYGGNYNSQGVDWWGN", "assay": "filter binding", "conditions": "no ATP hydrolysis; 3 mM Mg2+; 50 µg/ml salmon sperm DNA; EMSA: on ice, protein buffer 25 mM Tris-HCl pH 7.5, 0.5 mM DTT, 20% glycerol, 100 mM NaCl plus 5x binding buffer (10% glycerol, 5 mM MgCl2, 2.5 mM EDTA pH 8 …)"}}, "data": [{"substance": "18/36mer dsDNA", "values": [{"measurement": "binding signal (fold (reference affinity))", "setting": "DDX3wt (Homo sapiens)", "value": 1}, {"measurement": "binding signal (fold reduced affinity vs DDX3wt)", "setting": "[1]", "value": 2.1}]}]}
